Assay results from PMC3447998 (Biochemistry, 2012).
Each block holds one binder with its values, some of them ahead of it. Where no end group is shown, it is not given here. Me3 = trimethylated alpha-amino group on the N-terminal residue; Me2 = dimethylated alpha-amino group on the N-terminal residue

Experiments:
[1] = target: T1, recombinant human NRMT (N-terminal RCC1 methyltransferase) (human, UniProt Q9BV86 1-223); assay: ITC
T1 sequence (looked up): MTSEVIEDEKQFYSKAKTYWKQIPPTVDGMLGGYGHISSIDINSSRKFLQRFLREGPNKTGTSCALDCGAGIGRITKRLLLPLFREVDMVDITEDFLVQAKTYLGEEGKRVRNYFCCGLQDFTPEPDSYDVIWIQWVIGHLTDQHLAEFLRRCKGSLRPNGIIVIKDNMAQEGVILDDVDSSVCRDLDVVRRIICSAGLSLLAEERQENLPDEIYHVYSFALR

[2] = target: T1, recombinant human NRMT (N-terminal RCC1 …); assay: ITC; remark: listed apart in the source

B1: me3SPKRIAKRRS, 10-residue me3-SPK-RCC1 N-terminal product peptide (peptide)
peptide: Me3-SPKRIAKRRS
Ka [1]: 480000 M⁻¹ | Kd [2]: 2000 nM | dH [2]: -4.33 kcal/mol | stoichiometry N [2]: 1.2

B2: SPKRIAKRRS, wild-type 10-residue SPK-RCC1 N-terminal peptide (peptide)
peptide: SPKRIAKRRS
Ka [1]: 100000 M⁻¹ | Kd [2]: 10000 nM | dH [2]: -9.94 ± 0.207 kcal/mol | stoichiometry N [2]: 0.8

Next, values leading:

Ka [1]: 770000 M⁻¹ | Kd [2]: 1300 nM | dH [2]: -5.77 ± 0.093 kcal/mol | stoichiometry N [2]: 0.9
B3: me2PPKRIAKRRS, 10-residue me2-PPK-RCC1 N-terminal product peptide (peptide)
peptide: Me2-PPKRIAKRRS

Kd of the first phase of the bi-phasic curve [2]: 1.5 nM | Kd of the second phase of the bi-phasic curve [2]: 140 nM | dH of the first phase of the bi-phasic curve [2]: -31 ± 0.221 kcal/mol | dH of the second phase of the bi-phasic curve [2]: -9.43 ± 0.192 kcal/mol
B4: PPKRIAKRRS, 10-residue PPK-RCC1 N-terminal peptide (peptide)
peptide: PPKRIAKRRS
